Assay results taken from publication PMC9741652, “CRL2^ZER1/ZYG11B recognizes small N-terminal residues for degradation” (Nature Communications, 2022).
Changes are numbered by the printed parent chain. Names may count otherwise.

B1: ZER1 (residues 469–766), Q7Z7L7 D556A (protein)
chain: MEELEELEFQYRRVNELLLSILNPTRQDESIQRIAVHLCNALVCQVDNDHKEAVGKMGFVVTMLKLIQKKLLDKTCDQVMEFSWSALWNITAETPDNCEMFLNFNGMKLFLDCLKEFPEKQELHRNMLGLLGNVAEVKELRPQLMTSQFISVFSNLLESKADGIEVSYNACGVLSHIMFDGPEAWGVCEPQREEVEERMWAAIQSWDINSRRNINYRSFEPILRLLPQGISPVSQHWATWALYNLVSVYPDKYCPLLIKEGGMPLLRDIIKMATARQETKEMARKVIEHCSNFKEENMDTSR
B2: ZER1 (residues 469–766), Q7Z7L7 E600A (protein)
chain: B1 chain with A92D, E136A
B3: GFLHVGQD peptide G1V (peptide)
chain: VFLHVGQD

Key:
SFLHVGQD peptide = molecular target: T1, SFLHVGQD peptide; assay: ITC; conditions: chain shown with the change;; parent: 1.3
T1 chain: SFLHVGQD

[1] = molecular target: ZYG11B (residues 490–728), Q9C0D3; assay: ITC; conditions: chain shown with the change;; parent: 2.5 µM
Chain of ZYG11B (residues 490–728), Q9C0D3 (Q9C0D3 other isoform, or with tags, fused parts or gaps): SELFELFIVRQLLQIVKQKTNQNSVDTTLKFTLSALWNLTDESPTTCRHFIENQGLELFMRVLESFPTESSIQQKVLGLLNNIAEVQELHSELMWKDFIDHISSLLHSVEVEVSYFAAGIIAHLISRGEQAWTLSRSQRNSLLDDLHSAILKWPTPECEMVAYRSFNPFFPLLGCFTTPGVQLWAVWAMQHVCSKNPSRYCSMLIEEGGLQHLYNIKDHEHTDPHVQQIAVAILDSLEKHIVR

Row | Binder | Kd (SFLHVGQD peptide) | Kd [1]
1 | B1 | > 100 µM | 
2 | B2 | > 100 µM | 
3 | B3 |  | > 100 µM
